± gives the half width of the 95% confidence interval. A value given as a limit tells only on which side of the number the result lay.

The nature of data set [1]: folding stability dG unfold (combined trypsin and chymotrypsin); higher = more stable. The method in brief:
(§1)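 K50 was inferred by Bayesian fitting of sequencing counts obtained after protease digestion of designed mini-proteins. Unfolding free energy was derived by comparison with a sequence-predicted unfolded-state K50 and a shared folded-state K50, for each protease or both combined. The mini-proteins were under 80 residues, had no cysteine, were carried in a PA-tagged cDNA display construct, and were kept only if AlphaFold2 dimer inter-PAE exceeded 15.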

Data set [2] is described as follows: folding stability dG unfold from chymotrypsin proteolysis; higher = more stable. In short, it runs like this:
as §1

For the sequence “SAGGSAPVIVKEASLEEIKELKKKGVKKIILVEKNPEIAEKIKKEFEKEDDIPIETVSEEEAKKLKSAGGSA [r15_243_TrMRF]”, the “folding stability dG unfold” value in data set [1] is -0.718 ± 0.28 kcal/mol; in data set [2], -0.294 ± 0.13 kcal/mol.
Turning to “SAGGSARVVTAVARHPNSTEATLTVTDSGAAGGTSEITFASPEDLLAAIRNLPASVASVSVRPLLPSAGGSA [r15_589_TrMRF]”, the results for the “folding stability dG unfold” value in data set [1] and in data set [2] were 0.422 ± 0.092 kcal/mol and 0.806 ± 0.028 kcal/mol, respectively.
Taken in the same sequence, the figures for “SAGGSASPELQKRIKDALQEENPDYPVTVDEVDPKNNTIMITFNSPWHQKRIEKALKEDGIKITIYSAGGSA [r15_196_TrROS]” were -0.618 ± 0.27 kcal/mol and -0.0514 ± 0.38 kcal/mol.
As for “SAGGSAVGYYVETEIEKVEEKTYTFKPDGSPLKYFKNVKKNIKVKKVYVVKPTPDNSVIVDPNIPLSAGGSA [r15_162_JUSTAS]”, the “folding stability dG unfold” value in data set [1] was under -1 kcal/mol; in data set [2], -0.618 ± 0.46 kcal/mol.
In the case of “SAGGSDPVSVSTEGGNTYVTVGDTPVLRLSKGKPEPPVLVTLPNGEVIEMPRSEALARDPSTIEFTPGSAGG [r13_802_JUSTAS]”, the “folding stability dG unfold” value was -0.118 ± 0.12 kcal/mol in data set [1] and 0.368 ± 0.042 kcal/mol in data set [2].
Taken in the same sequence, the figures for “SAGGSITTEKSLPETNLTLKTTYEGDTETVEIYHHPESDTPVLLAKETVTFSPDGSVSRKSTVVKIESAGGS [r8_69_JUSTAS]” were -0.483 ± 0.27 kcal/mol and -0.0855 ± 0.17 kcal/mol.
The like results for “SAGGSMETTTLSSTPAELIATVEAEAAAAGKTISEITVTEDPATGLATVPVTIEITPAPALAPAARRSAGGS [r16_584_JUSTAS]” were, in that order, 0.249 ± 0.21 kcal/mol and 0.722 ± 0.065 kcal/mol.
For the sequence “SAGGSMKVEYDESTGVTTITLPDGSTITFPAEDTGLTVEASLEDDTLTITVKDPNNPVPLETRTIPSSSAGG [r13_938_JUSTAS]”, the “folding stability dG unfold” value was determined as 0.393 ± 0.18 kcal/mol in data set [1] and 0.935 ± 0.036 kcal/mol in data set [2].
“SAGGSNKNSPEDQKRKQQPPQPKVRTIPGPLSEDQIKNLLDNGQPIIIEGPDGEWWVIKNNEIEPISAGGSA [r2_33_TrROS]”: the “folding stability dG unfold” value in data set [1] was -0.0552 ± 0.24 kcal/mol; in data set [2] it was 0.255 ± 0.14 kcal/mol.
The like results for “SAGGSPPYVNISMRRTPNGNMPLKVEIYDKDNEPVAEQEIEIPDMEPGEQWNFTIPIEPNMKLRIESAGGSA [r2_288_TrROS]” were, in that order, -0.132 ± 0.12 kcal/mol and 0.456 ± 0.13 kcal/mol.
The like results for “SAGGSVLVTLTNPADGTPVTLPTPAEEAEAILASGDTAALEARHPGRPVAAVTVDPVSPRPPVPPGLASAGG [r13_629_JUSTAS]” were, in that order, -0.651 ± 0.38 kcal/mol and 0.223 ± 0.095 kcal/mol.
The like results for “SAGGSVTLPPEEARAYAEAHPDRDLVLSMRPDDSTVTLELSVDPAAPGALSVRRREVFDPAGNATVVDSAGG [r13_481_JUSTAS]” were, in that order, -0.182 ± 0.15 kcal/mol and 0.308 ± 0.13 kcal/mol.
On to “SAGGSVVTGVDEEELRAVAEALRAAGHTLADVRIERYPEDGTYRMTVTLVDPATAAPLADVLMVAKASAGGS [r16_750_JUSTAS]”, for which the “folding stability dG unfold” value worked out at 0.312 ± 0.15 kcal/mol in data set [1] and 0.887 ± 0.13 kcal/mol in data set [2].
Consider “SAGGTIEEIRDQLKNMPPGYHVDLKIPNGRSHSFGSLEDIEDLPITNPNGRKIEITEVQPMPPPDEQSAGGS [r16_680_TrROS]”, for which the “folding stability dG unfold” value was -0.703 ± 0.68 kcal/mol in data set [1] and 0.195 ± 0.16 kcal/mol in data set [2].
The like results for “SAGGTTTRTTVYFDDGKVYELTDPEEVEKTIKEKLGKNYKIVSEEEYTEPSPDGPPLPARRLKLKKKSAGGS [r16_408_JUSTAS]” were, in that order, under -1 kcal/mol and -0.795 ± 0.33 kcal/mol.
Taken in the same sequence, the figures for “SAGGVIGTRKKVNKIEKPVPEGATTTPSIIGNTTILTTTAPDGSTVTVTLTKTEPIPGKPDVSEKYEASAGG [r13_804_JUSTAS]” were -0.265 ± 0.12 kcal/mol and 0.11 ± 0.042 kcal/mol.
Taken in the same sequence, the figures for “SAGKTIYIQGPLDELRKLPEIKEVEKTGNHWTLELPNVPIHIEIEPPPPVPVVPPEMPKEQMKEYMKKMSAG [r5_2_TrROS]” were 0.316 ± 0.37 kcal/mol and 0.646 ± 0.32 kcal/mol.
Consider “SAGMDEYIRELIEKLPSENPSTSPITYRDKNIEAVTYYPSTNTTTFHFPGGEVISASPSTSIEEILKELSAG [r14_59_JUSTAS]”, for which the “folding stability dG unfold” value was -0.193 ± 0.19 kcal/mol in data set [1] and 0.198 ± 0.22 kcal/mol in data set [2].
With “SAGMEEILEAAREAIEAGLTVRIEVTFKDGKKEEIEIEVESLEELLEALEKLDEIESVKIEVLAPGEEPSAG [r5_956_TrROS_Hall]”, the “folding stability dG unfold” value was 3.61 ± 0.95 kcal/mol in data set [1] and 2.95 ± 0.15 kcal/mol in data set [2].
On to “SAGMITLEKTVPLSEATPEKAKEIAEELLEKLKKEGLPEGLEKTSIEITELPGDELIVKVPTKIVSKESAGG [r19_87_JUSTAS]”, for which the “folding stability dG unfold” value in data set [1] is under -1 kcal/mol; in data set [2], -0.556 ± 0.14 kcal/mol.
As for “SAGMITRTITTVDPVDPALVAAISPDLVFPDGSTVSRDGDRLVITTPVTLALPPSPDPAGQLVLPTAASAGG [r19_148_JUSTAS]”, the “folding stability dG unfold” value in data set [1] is -0.00544 ± 0.17 kcal/mol; in data set [2], 0.483 ± 0.087 kcal/mol.
As to “SAGMKTLTGPPEVLEELVEKALKENPNAKTVTIVDGDKSVTVPKDEEVEFLEPAPQPDGEPYVTIEILESAG [r5_130_JUSTAS]”, the “folding stability dG unfold” value in data set [1] was determined as 0.101 ± 0.13 kcal/mol; in data set [2], 0.669 ± 0.048 kcal/mol.
